{"source": "paper PMC7232488", "key": {"[1]": {"molecular_target": "Gag (Human immunodeficiency virus 1) (UniProt O93182)", "conditions": "cited from earlier work"}, "[2]": {"test_system": "Δ1 SP1 Gag (HIV-1 (isolate BH10))", "assay": "MST"}, "[3]": {"test_system": "WM Gag (HIV-1 (isolate BH10))", "assay": "MST"}}, "data": [{"substance": "Gag (from UniProt O93182)", "values": [{"measurement": "Kd", "setting": "[1]", "value": 5.5, "unit": "µM"}]}, {"substance": "reverse complement RNA (non-Ψ control)", "values": [{"measurement": "binding signal (fold difference vs WT Gag)", "setting": "[2]", "value": 2}]}, {"substance": "Ψ RNA", "values": [{"measurement": "binding signal (fold decrease in affinity vs WT Gag)", "setting": "[3]", "value": 3.5}, {"measurement": "binding signal (fold difference vs WT Gag)", "setting": "[2]", "value": 2}]}]}
